Data on six variants can be found in IntAct's records for PubMed 31515488.

B1: Actin-associated protein FAM107A (Homo sapiens), O95990 (parent)
chain: MYSEIQRERADIGGLMARPEYREWNPELIKPKKLLNPVKASRSHQELHRELLMNHRRGLGVDSKPELQRVLEHRRRNQLIKKKKEELEAKRLQCPFEQELLRRQQRLNQLEKPPEKEEDHAPEFIKVRENLRRIATLTSEEREL
B2: Ornithine decarboxylase antizyme 3 (Homo sapiens), Q9UMX2 (parent)
chain: MPCKRCRPSVYSLSYIKRGKTRNYLYPIWSPYAYYLYCYKYRITLREKMLPRCYKSITYKEEEDLTLQPRSCLQCSESLVGLQEGKSTEQGNHDQLKELYSAGNLTVLATDPLLHQDPVQLDFHFRLTSQTSAHWHGLLCDRRLFLDIPYQALDQGNRESLTATLEYVEEKTNVDSVFVNFQNDRNDRGALLRAFSYMGFEVVRPDHPALPPLDNVIFMVYPLERDVGHLPSEPP
partner: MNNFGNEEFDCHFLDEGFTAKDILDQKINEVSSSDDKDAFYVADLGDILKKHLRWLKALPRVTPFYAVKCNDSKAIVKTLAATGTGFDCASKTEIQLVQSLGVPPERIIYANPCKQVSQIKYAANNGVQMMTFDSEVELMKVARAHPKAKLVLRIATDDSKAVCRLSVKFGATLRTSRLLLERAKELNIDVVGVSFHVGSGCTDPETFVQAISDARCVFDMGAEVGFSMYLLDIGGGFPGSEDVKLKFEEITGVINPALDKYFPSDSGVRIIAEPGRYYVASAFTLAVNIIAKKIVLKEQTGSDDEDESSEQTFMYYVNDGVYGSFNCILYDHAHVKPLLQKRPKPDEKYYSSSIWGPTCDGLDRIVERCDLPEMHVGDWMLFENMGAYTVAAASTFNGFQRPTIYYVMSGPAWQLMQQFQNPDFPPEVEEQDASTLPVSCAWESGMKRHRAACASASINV
B3: Keratin, type II cytoskeletal 79 (Homo sapiens), Q5XKE5 (parent)
chain: MRSSVSRQTYSTKGGFSSNSASGGSGSQARTSFSSVTVSRSSGSGGGAHCGPGTGGFGSRSLYNLGGHKSISVSVAGGALLGRALGGFGFGSRAFMGQGAGRQTFGPACPPGGIQEVTVNQSLLTPLHVEIDPEIQRVRTQEREQIKTLNNKFASFIDKVRFLEQQNKVLETKWALLQEQGQNLGVTRNNLEPLFEAYLGSMRSTLDRLQSERGRLDSELRNVQDLVEDFKNKYEDEINKHTAAENEFVVLKKDVDAAYMGRMDLHGKVGTLTQEIDFLQQLYEMELSQVQTHVSNTNVVLSMDNNRNLDLDSIIAEVKAQYELIAQRSRAEAEAWYQTKYEELQVTAGKHGDNLRDTKNEIAELTRTIQRLQGEADAAKKQCQQLQTAIAEAEQRGELALKDAQKKLGDLDVALHQAKEDLTRLLRDYQELMNVKLALDVEIATYRKLLESEESRMSGECPSAVSISVTGNSTTVCGGGAASFGGGISLGGSGGATKGGFSTNVGYSTVKGGPVSAGTSILRKTTTVKTSSQRY
partner: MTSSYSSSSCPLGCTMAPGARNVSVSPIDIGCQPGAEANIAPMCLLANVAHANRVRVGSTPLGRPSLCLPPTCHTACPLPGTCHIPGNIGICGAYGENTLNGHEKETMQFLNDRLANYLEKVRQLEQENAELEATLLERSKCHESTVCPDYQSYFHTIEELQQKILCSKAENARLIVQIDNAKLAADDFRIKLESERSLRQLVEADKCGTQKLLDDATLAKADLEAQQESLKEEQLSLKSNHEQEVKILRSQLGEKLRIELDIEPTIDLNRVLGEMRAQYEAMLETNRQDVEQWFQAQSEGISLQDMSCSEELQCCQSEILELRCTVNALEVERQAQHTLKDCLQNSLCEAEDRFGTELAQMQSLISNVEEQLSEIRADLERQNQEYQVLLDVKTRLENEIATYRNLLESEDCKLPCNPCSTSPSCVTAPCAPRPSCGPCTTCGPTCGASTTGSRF

The variants in one assay derive from B1. Particulars: with cc136_human CCDC136, Q96JN2.
cc136_human CCDC136, Q96JN2, sequence (Q96JN2 whole entry): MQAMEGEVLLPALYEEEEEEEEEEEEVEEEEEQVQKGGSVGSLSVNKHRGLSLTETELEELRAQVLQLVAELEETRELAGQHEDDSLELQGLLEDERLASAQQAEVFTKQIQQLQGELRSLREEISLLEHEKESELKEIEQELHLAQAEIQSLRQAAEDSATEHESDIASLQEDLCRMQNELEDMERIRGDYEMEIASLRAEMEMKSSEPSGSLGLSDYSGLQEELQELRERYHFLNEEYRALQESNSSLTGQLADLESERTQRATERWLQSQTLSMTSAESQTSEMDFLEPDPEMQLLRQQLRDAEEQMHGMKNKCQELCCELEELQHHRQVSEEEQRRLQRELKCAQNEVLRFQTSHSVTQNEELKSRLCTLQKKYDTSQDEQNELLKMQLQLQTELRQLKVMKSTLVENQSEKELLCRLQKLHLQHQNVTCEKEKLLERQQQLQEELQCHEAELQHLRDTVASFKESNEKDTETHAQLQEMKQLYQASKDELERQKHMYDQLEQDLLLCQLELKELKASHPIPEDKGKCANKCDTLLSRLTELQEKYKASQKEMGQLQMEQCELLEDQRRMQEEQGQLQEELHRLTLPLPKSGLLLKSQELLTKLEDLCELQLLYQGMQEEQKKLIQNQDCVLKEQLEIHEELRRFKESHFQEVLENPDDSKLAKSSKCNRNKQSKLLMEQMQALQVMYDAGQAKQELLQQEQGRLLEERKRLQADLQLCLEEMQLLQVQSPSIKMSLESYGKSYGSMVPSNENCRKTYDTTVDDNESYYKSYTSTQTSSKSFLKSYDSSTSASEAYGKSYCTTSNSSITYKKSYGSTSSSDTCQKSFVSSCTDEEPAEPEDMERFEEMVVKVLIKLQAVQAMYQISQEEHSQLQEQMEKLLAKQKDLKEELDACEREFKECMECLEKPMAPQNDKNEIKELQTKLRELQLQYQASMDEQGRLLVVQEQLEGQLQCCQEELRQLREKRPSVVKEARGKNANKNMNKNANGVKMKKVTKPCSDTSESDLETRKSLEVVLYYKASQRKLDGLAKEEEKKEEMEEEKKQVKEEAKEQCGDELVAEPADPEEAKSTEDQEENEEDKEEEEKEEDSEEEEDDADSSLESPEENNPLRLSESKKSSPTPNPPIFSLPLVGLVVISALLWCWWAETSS
Regarding MYSEIQRERADIGGLMARPEYREWNPELIKPKKLLNPVKASRSHQELHRELLMNHRRGLGVDRKPELQRVLEHRRRNQLIKKKKEELEAKRLQCPFEQELLRRQQRLNQLEKPPEKEEDHAPEFIKVRENLRRIATLTSEEREL [S63R], the “effect of a mutation on the interaction” value is given as “with no effect”.

In the case of MYSEIQRERADIGGLMARPEYREWNPELIKPKKLLNPVKASRSHQELHRELLMNHRRGLGVDSKPELQRVLEHRRRNQLIKKKKEELEAKRLQCPFEQELLRRQQRLNQLEKPPEKEEDHAPEFIKVRENLRRIATLTSEQREL [E141Q], the “effect of a mutation on the interaction” value was “disrupting interaction strength”.

In another assay the parent is B1. Particulars: with traf2_human TRAF2, Q12933.
In the case of MYSEIQRERADIGGLMARPEYREWNPELIKPKKLLNPVKASRSHQELHRELLMNHRRGLGVDRKPELQRVLEHRRRNQLIKKKKEELEAKRLQCPFEQELLRRQQRLNQLEKPPEKEEDHAPEFIKVRENLRRIATLTSEEREL [S63R], the “effect of a mutation on the interaction” value is given as “with no effect”.

Consider MYSEIQRERADIGGLMARPEYREWNPELIKPKKLLNPVKASRSHQELHRELLMNHRRGLGVDSKPELQRVLEHRRRNQLIKKKKEELEAKRLQCPFEQELLRRQQRLNQLEKPPEKEEDHAPEFIKVRENLRRIATLTSEQREL [E141Q], for which the “effect of a mutation on the interaction” value is “disrupting interaction strength”.

In a further assay the parent is B2. To be noted: with dcor_human ODC1, P11926.
For the variant MPCKRCRPSVYSLSYIKRGKTRNYLYPIWSPYAYYLYCYKYRITLREKMLPRCYKSITYKEEEDLTLQPRSCLQCSESLVGLQEGKSTEQGNHDQLKELYSAGNLTVLATDPLLHQDPVQLDFHFRLTSQTSAHWHGLLCDRRLFLDIPYQALDQGNRESLTATLEYVEEKTNVDSVFVNFQNDRNDRGALLQAFSYMGFEVVRPDHPALPPLDNVIFMVYPLERDVGHLPSEPP [R193Q], the “effect of a mutation on the interaction” value is reported as “disrupting interaction strength”.

For the variant MPCKRCRPSVYSLSYIKRGKTRNYLYPIWSPYAYYLYCYKYRITLREKMLPRCYKSITYKEEEDLTLQPRSCLQCSESLVGLQEGKSTEQGNHDQLKELYSAGNLTVLATDPLLHQDPVQLDFHFRLTSQTSAHWHGLLCDRRLFLDIPYQALDQGNRESLTATLEYVEEKTNADSVFVNFQNDRNDRGALLRAFSYMGFEVVRPDHPALPPLDNVIFMVYPLERDVGHLPSEPP [V174A], the “effect of a mutation on the interaction” value is given as “disrupting interaction strength”.

The variants in a further assay derive from B3. Particulars: with krt38_human KRT38, O76015.
Consider MRSSVSRQTYSTKGGFSSNSASGGSGSQARTSFSSVTVSRSSGSGGGAHCGPGTGGFGSRSLYNLGGHKSISVSVAGGALLGRALGGFGFGSRAFMGQGAGRQTFGPACPPGGIQEVTVNQSLLTPLHVEIDPEIQRVRTQEREQIKTLNNKFASFIDKVRFLEQQNKVLETKWALLQEQGQNLGVTRNNLEPLFEAYLGSMRSTLDRLQSERGRLDSELRNVQDLVEDFKNKYEDEINKHTAAENEFVVLKKDVDAAYMGRMDLRGKVGTLTQEIDFLQQLYEMELSQVQTHVSNTNVVLSMDNNRNLDLDSIIAEVKAQYELIAQRSRAEAEAWYQTKYEELQVTAGKHGDNLRDTKNEIAELTRTIQRLQGEADAAKKQCQQLQTAIAEAEQRGELALKDAQKKLGDLDVALHQAKEDLTRLLRDYQELMNVKLALDVEIATYRKLLESEESRMSGECPSAVSISVTGNSTTVCGGGAASFGGGISLGGSGGATKGGFSTNVGYSTVKGGPVSAGTSILRKTTTVKTSSQRY [H266R], for which the “effect of a mutation on the interaction” value is “with no effect”.

Take MRSSVSRQTYSTKGGFSSNSASGGSGSQARTSFSSVTVSRSSGSGGGAHCGPGTGGFGSRSLYNLGGHKSISVSVAGGALLGRALGGFGFGSRAFMGQGAGRQTFGPACPPGGIQEVTVNQSLLTPLHVEIDPEIQRVRTQEREQIKTLNNKFASFIDKVRFLEQQNKVLETKWALLQEQGQNLGVTRNNLEPLFEAYLGSMRSTLDRLQSERGRLYSELRNVQDLVEDFKNKYEDEINKHTAAENEFVVLKKDVDAAYMGRMDLHGKVGTLTQEIDFLQQLYEMELSQVQTHVSNTNVVLSMDNNRNLDLDSIIAEVKAQYELIAQRSRAEAEAWYQTKYEELQVTAGKHGDNLRDTKNEIAELTRTIQRLQGEADAAKKQCQQLQTAIAEAEQRGELALKDAQKKLGDLDVALHQAKEDLTRLLRDYQELMNVKLALDVEIATYRKLLESEESRMSGECPSAVSISVTGNSTTVCGGGAASFGGGISLGGSGGATKGGFSTNVGYSTVKGGPVSAGTSILRKTTTVKTSSQRY [D217Y]: the “effect of a mutation on the interaction” value is “with no effect”.
